Source: PMC3384721
“And” between values parts separate entries of the source, which are not always exact repeats. Equal values may be shown once.

Experiments:
[1] = biological target: A4V mutant copper-zinc superoxide dismutase (A4VSOD1) (human) (UniProt P00441); assay: AUC
[2] = biological target: A4V mutant copper-zinc superoxide dismutase (A4VSOD1) (human) (UniProt P00441); assay: atomic force microscopy

percent of total protein as dimer [1]: 31.7%
percent of total protein as tetramer [1]: 37.6%
stoichiometry N [1]: 2 and 4
stoichiometry N [2]: 4
Substance: A4V mutant copper-zinc superoxide dismutase (A4VSOD1) (from UniProt P00441 6-154) (enzyme)
